The text below walks through data of patent publication US11766414B2, “Compositions, delivery systems, and methods useful in tumor therapy” (Indi Molecular, Inc., priority 2020, dated 2023).

Starred links: 1 amine or outer side, 2 acyl side, 3 side chain; linkers in the order of their positions; H or OH if unused. Positions of bridges follow the written chain, without caps; N, C: chain ends. Non-standard residues stand in square brackets, D forms with d. Residues, ends and D or L forms follow the SMILES beside them. Groups on a side chain read outwards from the residue. Triazole bridges read from a SMILES are 1,4-linked. *: point of attachment. DOTA = O=C(O)CN1CCN(CC(=O)O)CCN(CC(=O)*)CCN(CC(=O)O)CC1; Pteroyl = Nc1nc2ncc(CNc3ccc(C(=O)*)cc3)nc2c(=O)[nH]1; Butanoyl(4-(4-MePh)) = Cc1ccc(CCCC(=O)*)cc1; Lys(N3) = [N-]=[N+]=NCCCC[C@H](N)C(=O)O; γGlu = O=C(O)[C@H](CCC(=O)[*:2])N[*:1]; AEEEA = NCCOCCOCCOCC(=O)O; Pra = C#CC[C@H](N)C(=O)O; X1 = NOCC(=O)*

Data set [1] concerns OVCAR3 xenograft. As to the kind of experiment: 177Lu FOLR1 radioligand therapy of OVCAR3 xenografts. It is filed as in vivo, mouse. The following applies: for tumor response: single dose at 18.5 MBq/nmol, tumor size (avg.) 148 mm^3. The protocol:
Water and food were provided ad libitum. […] Tumor growth was monitored by caliper measurements.
OVCAR3 tumor bearing mice were used to study FOLR1-directed radioligand therapy (RLT) for treatment of ovarian cancer. Animals were administered a single dose of heterobiligand (vehicle control) or 111, 37, 18.5, 9.25, or 3.7 MBq [^177Lu]DOTA-labeled heterobiligand. Mice received the dose intravenously (i.v.) via the tail vein. To monitor the effect of the RLT, tumor size measurements were taken twice weekly and body weights were measured.
Single dose treatments at 18.5 MBq/nmol specific activity. OVCAR3 mouse model was used. 10^7 cell tumors were implanted in the mice one month before administration of ^177Lu-#6305. Five mice each were administered Cold #6305, 9.25 MBq Lu177-#6305, and 14.8 MBq Lu177-#6305, and two mice were administered 29.6 MBq Lu177-#6305. Tumor growth and body weight were then monitored.
Female NSG mice were implanted subcutaneously with OVCAR3 cells. Once tumors reached volumes of 200 mm^3, the animals were treated with 177-Lu 7327. Three treatment arms of 9.25 MBq, 14.8 MBq, and 29.6 MBq were studied.

The nature of data set [2]: Gamma counting of tissue radioactivity. It is filed as in vivo, mouse. The following applies: for kidney radioactivity / liver radioactivity / tumor radioactivity: Day 28 post-injection. The text has this: 7 days after Lu177-#6305 injection, the 29.6 MBq group lost 20% body weight. These mice were sacrificed. Tissues and plasma were collected for evaluation of radioactivity by gamma counting. The toxicity may have resulted from its accumulation in the kidneys and liver (FIG. 28). At study endpoint (Day 28 post-injection), plasma, tumors, kidneys, lungs, hearts, livers, and muscles from 9.25 MBq and 14.8 MBq treatment groups were collected for evaluation of radioactivity by gamma counting (FIG. 29).

Data set [3] has as its system OVCAR3 xenograft. As to the kind of experiment: 177Lu FOLR1 radioligand therapy of OVCAR3 xenografts. It counts as in vivo, mouse. Particulars: single dose.
Data set [4] in a line: Maximum tolerated dose (MTD) tolerability study.
Experimental: In order to establish a maximum tolerated dose (MTD), a tolerability study was undertaken testing increasing amounts of the 177-Lu heterobiligand 7327 (folate-hshta-Gly-Phe-Lys(DOTA)). Animals were monitored for signs of toxicity and weighed twice weekly. […] The second and third doses were administered 21 days following the previous dose.
Efforts were undertaken to evaluate 177-Lu 6305 (folate-hshta-Lys(MPBA)-Gly-Phe-Lys(DOTA)), a compound with a brush border cleavable linker in addition to an albumin binder. […] Two separate MTD experiments were undertaken. […] A second experiment interrogated lower doses.
In order to establish a MTD, dose range finding studies were undertaken testing increasing amounts of Indi ^177Lu-7327 in healthy, non-tumor bearing female NSG mice using IV administration (FIGS. 34 and 35). Mouse body weight and behavior were monitored. […] The second and third doses were administered 21 days following the previous dose.
The nature of data set [5]: Plasma protein binding, human plasma. It is filed as in vitro ADME. Particulars: for recovery / fraction unbound: human plasma; for fraction unbound: read-out: Plasma % Bound, Hu (converted). On the procedure: (§1) HTD 96 a/b regenerated cellulose membrane strips with mass cutoff of 12-14 kDa were soaked in ultra-pure water at room temperature for 1 hour. Each swelled membrane was then soaked in 20:80 ethanol:water for 20 minutes.
(§2) Just prior to the experiment, the membranes were re-soaked in ultra-pure water. Plasma was prepared by thawing under cold water. The plasma was centrifuged to remove any clots and pH was adjusted to 7.0-8.0. Test articles and control compounds were diluted to 2 μM. The dialysis device was loaded by transferring 150 μL of the test article (in triplicate) to the donor side. The dialysis device was placed in a humidified incubator at 37° C. with 5% CO2 in a shaking platform that rotated slowly for 4 hours. After incubation, 50 μL of the supernatant was taken from both sides and analyzed by LC-MS/MS.

Data set [6] is described as follows: Plasma protein binding, CD-1 mouse plasma. It is filed as in vitro ADME. The following applies: for fraction unbound / recovery: CD-1 mouse plasma; for fraction unbound: read-out: Plasma % Bound, Mu (converted). On the procedure:
as §1, §2

A further data set concerns the target human recombinant NEP (Homo sapiens, UniProt P08473). As to the kind of experiment: NEP enzymatic cleavage assay (MALDI, HPLC). It counts as biochemical. On the procedure: In order to test the susceptibility of GFK and MVK linkers to NEP-mediated cleavage, the peptide (Folate-hshta-Lys(MPBA)-Gly-Phe-Lys(DOTA) (SEQ ID NO:6)) was incubated with human recombinant NEP and analyzed the solution for the presence of cleaved adducts. MALDI was utilized to monitor the cleavage of a PCC heterobiligand that contains a NEP protease recognizable sequence (G-F-K). The PCC concentration was constant and the NEP concentration was titrated down from 10 nM to 1 nM, 0.1 nM, 0.01 nM, and no NEP. The NEP-mediated cleaved adduct was identified by mass. 10 μM PCC containing the GFK linker was combined with varying amounts of NEP. […] Below 0.1 nM no cleavage was observed. • Folate-hshta-Lys(MPBA)-Gly-Phe-Lys(DOTA) (SEQ ID NO:6) • Molecular weight 2231.42
The NEP-mediated cleavage was also monitored by HPLC. In agreement with the MALDI spectra, the HPLC chromatograms show depletion of the parent brush-border heterobiligand (retention time 17.1 minutes), dose-dependent on the amount of NEP spiked into the sample (10 nM, 1 nM, 0.1 nM, 0.01 nM, and no NEP). An appearance of a new peak (retention time 16.5 minutes) in concert with the depletion of the starting material is presumed to be the cleaved folate-containing peptide.
In order to test the specificity of NEP, a non-cleavable linker (PEG3) was also assayed.
To reduce the radioactive dose to the kidney, Indi ^177Lu-7327 was constructed to incorporate a GFK linker that is susceptible to cleavage by enzymes found predominately in the kidney's brush border. These enzymes cleave off the radionuclide-chelator complex, which is quickly eliminated by the kidney for excretion in the urine. The zinc metalloprotease neprilysin (NEP) is expressed with high abundance in the kidney. […] To confirm NEP-mediated cleavage of the GFK linker in Indi 7327, the peptide was incubated with recombinant human NEP at 37° C. for 1 h and analyzed by matrix-assisted laser desorption/ionization mass spectrometry (MALDI-MS) for the evolution of cleaved adducts (FIG. 42). […] The expected cleaved adduct (mass: 1283.16 m/z) appears in the samples containing 10, 1.0, and 0.1 nM NEP. […] Below 0.1 nM NEP, no cleavage was observed. In addition to confirming the selectivity of NEP for the GFK linker, it is also important to note that the remaining portions of the Indi 7327 were impervious to the enzyme.

Where [7] appears, read: 29.6 MBq group, Day 7 post-injection.
Setting [8] is: read-out: Plasma protein binding % Recovery, Hu.
The mark [9] stands for this setting: read-out: Plasma protein binding % Recovery, Mu.

human recombinant NEP, sequence (P08473 whole entry): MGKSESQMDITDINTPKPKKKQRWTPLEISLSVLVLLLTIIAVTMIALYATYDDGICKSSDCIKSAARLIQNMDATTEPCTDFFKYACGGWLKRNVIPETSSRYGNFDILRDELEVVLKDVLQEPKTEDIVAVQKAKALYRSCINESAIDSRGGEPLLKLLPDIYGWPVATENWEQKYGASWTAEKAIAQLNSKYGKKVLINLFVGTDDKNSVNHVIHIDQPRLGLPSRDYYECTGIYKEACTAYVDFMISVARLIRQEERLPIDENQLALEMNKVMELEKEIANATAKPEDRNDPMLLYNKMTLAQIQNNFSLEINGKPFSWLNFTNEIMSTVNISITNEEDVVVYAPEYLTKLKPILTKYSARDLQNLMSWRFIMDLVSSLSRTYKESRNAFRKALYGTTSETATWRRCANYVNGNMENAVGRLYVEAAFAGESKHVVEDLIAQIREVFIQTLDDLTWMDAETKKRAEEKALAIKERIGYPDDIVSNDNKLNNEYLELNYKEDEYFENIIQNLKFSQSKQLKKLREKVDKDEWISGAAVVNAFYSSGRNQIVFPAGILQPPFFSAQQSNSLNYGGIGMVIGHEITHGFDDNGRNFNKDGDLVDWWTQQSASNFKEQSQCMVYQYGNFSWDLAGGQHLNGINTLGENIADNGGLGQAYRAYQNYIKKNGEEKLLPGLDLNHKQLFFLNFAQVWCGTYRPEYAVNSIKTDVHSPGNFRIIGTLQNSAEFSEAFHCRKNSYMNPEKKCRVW

As for `Cc1ccc(CCCC(=O)NCCCC[C@H](NC(=O)[C@@H]2CCCCn3cc(nn3)C[C@H](NC(=O)CC[C@H](NC(=O)c3ccc(NCc4cnc5nc(N)[nH]c(=O)c5n4)cc3)C(=O)O)C(=O)N[C@H](Cc3c[nH]cn3)C(=O)N[C@H](CO)C(=O)N[C@H](Cc3c[nH]cn3)C(=O)N[C@H]([C@H](C)O)C(=O)N[C@H](C)C(=O)N2)C(=O)NCC(=O)N[C@@H](Cc2ccccc2)C(=O)N[C@@H](CCCCNC(=O)CN2CCN(CC(=O)O)CCN(CC(=O)O)CCN(CC(=O)O)CC2)C(=O)O)cc1` (177Lu complex, metal not drawn) [Lu177-#6305] ({Pteroyl-γGlu}-[Pra][dH][dS][dH][dT][dA][Lys(N3)]K(Butanoyl(4-(4-MePh)))GFK(DOTA)-OH; triazole 1-7), the body weight change entry in the data set with OVCAR3 xenograft [1] (9.25 MBq and 14.8 MBq, single dose) is reported as “No significant body weight change”; in the data set on OVCAR3 xenograft [3] (29.6 MBq), “substantial body weight decrease”. Further, the tumor response result was “nonresponse” in the data set with OVCAR3 xenograft [1] (9.25 MBq) and “partial response” in the data set on OVCAR3 xenograft [1] (14.8 MBq). The molecule further had a body weight lost in the data set with OVCAR3 xenograft [1] (29.6 MBq group, 7 days after injection) of 20%. Also, the values for the kidney radioactivity in data set [2] (9.25 MBq group) and in data set [2] (14.8 MBq group) were 414 CPM/g and 653 CPM/g, respectively. Besides, the values for the liver radioactivity in data set [2] (9.25 MBq group) and in data set [2] (14.8 MBq group) were 685 CPM/g and 1,264 CPM/g, respectively. In addition, the figures for the tumor radioactivity in data set [2] (9.25 MBq group) and in data set [2] (14.8 MBq group) were 33 CPM/g and 60 CPM/g, respectively. The values for the liver/kidney ratio in data set [2] (14.8 MBq group on Day 28) and in data set [2] (29.6 MBq group on Day 7) were 1.94 and 0.27, respectively. Besides, the “radioactivity in the kidney” value in data set [2] (setting [7]) is listed as 394,834 CPM/g. Further, in data set [2] (setting [7]), the “radioactivity in the liver” value is 107,374 CPM/g. Further, in data set [2] (setting [7]), the “radioactivity in the tumor” value is given as 42,674 CPM/g. The OVCAR3 tumor growth entry with OVCAR3 xenograft [3] (14.8 MBq) was “significantly slowed down OVCAR3 tumor growth”. Besides, the “tolerability of second dose” value in data set [4] (14.8-22.2 MBq, second dose administered 21 days) was “not tolerated”; in data set [4] (29.6-185 MBq, second dose 7 days after the first), “not tolerated”. Besides, the body weight entry is “began to experience weight loss after the first dose” in data set [4] (29.6 MBq, 37 MBq, 111 MBq, and 185 MBq, first dose); “only minimal loss in body weight that quickly stabilized” in data set [4] (single dose of 14.8 MBq, 18.5 MBq, and 22.2 MBq).

On to `Cc1ccc(CCCC(=O)NCCCC[C@H](NC(=O)[C@@H]2CCCCn3cc(nn3)C[C@H](NC(=O)CC[C@H](NC(=O)c3ccc(NCc4cnc5nc(N)[nH]c(=O)c5n4)cc3)C(=O)O)C(=O)N[C@H](Cc3c[nH]cn3)C(=O)N[C@H](CO)C(=O)N[C@H](Cc3c[nH]cn3)C(=O)N[C@H]([C@H](C)O)C(=O)N[C@H](C)C(=O)N2)C(=O)NCC(=O)N[C@@H](Cc2ccccc2)C(=O)N[C@@H](CCCCNC(=O)COCCOCCOCCNC(=O)CN2CCN(CC(=O)O)CCN(CC(=O)O)CCN(CC(=O)O)CC2)C(=O)O)cc1` [compound 3302, Fol-hshta-Lys(4-MPBA)-Gly-Phe-Lys(PEG3-DOTA)] ({Pteroyl-γGlu}-[Pra][dH][dS][dH][dT][dA][Lys(N3)]K(Butanoyl(4-(4-MePh)))GFK([AEEEA-DOTA])-OH; triazole 1-7), for which the recovery was 88.1% in data set [5] (setting [8]) and 103% in data set [6] (setting [9]). Besides, the fraction unbound in data set [5] (human, plasma) is 0.051; in data set [6], 0.035. For the same molecule, the “in vitro Assay Data (NEP assay)” value on human recombinant NEP (Table 2) is “Cleavage of -G-F-K-”.

As to `C[C@H](O)[C@H]1NC(=O)[C@@H](Cc2cnc[nH]2)NC(=O)[C@@H](CO)NC(=O)[C@@H](Cc2cnc[nH]2)NC(=O)[C@@H](NC(=O)CC[C@H](NC(=O)c2ccc(NCc3cnc4nc(N)[nH]c(=O)c4n3)cc2)C(=O)O)Cc2cn(nn2)CCCC[C@@H](C(=O)NCC(=O)N[C@@H](Cc2ccccc2)C(=O)N[C@@H](CCCCNC(=O)CON)C(=O)O)NC(=O)[C@@H](C)NC1=O` [compound 3303, Fol-hshta-Gly-Phe-Lys(AO)] ({Pteroyl-γGlu}-[Pra][dH][dS][dH][dT][dA][Lys(N3)]GFK(X1)-OH; triazole 1-7), the fraction unbound at 4 h, 2 μM in data set [5] (human, plasma, AO-containing constructs, (FB), read-out: Plasma % Bound, Hu) stood at 0.19; in data set [6] (CD-1, mouse, plasma, AO-containing constructs, (FB), read-out: Plasma % Bound, Mu), 0.245. Besides, the recovery at 4 h, 2 μM in data set [5] (human, plasma, AO-containing constructs, (FB), read-out: Plasma protein binding % Recovery, Hu) came to 80.6%; in data set [6] (CD-1, mouse, plasma, AO-containing constructs, (FB), read-out: Plasma protein binding % Recovery, Mu), 77.7%. Besides, at human recombinant NEP (Table 7, AO-containing constructs), the “in vitro Assay Data (NEP assay)” value is on record as “Cleavage of —G—F—K-”.

Turning to `C[C@H](O)[C@H]1NC(=O)[C@@H](Cc2c[nH]cn2)NC(=O)[C@@H](CO)NC(=O)[C@@H](Cc2c[nH]cn2)NC(=O)[C@@H](NC(=O)CC[C@H](NC(=O)c2ccc(NCc3cnc4nc(N)[nH]c(=O)c4n3)cc2)C(=O)O)Cc2cn(nn2)CCCC[C@@H](C(=O)NCCOCCOCCOCC(=O)NCC(=O)N[C@@H](Cc2ccccc2)C(=O)N[C@@H](CCCCNC(=O)CN2CCN(CC(=O)O)CCN(CC(=O)O)CCN(CC(=O)O)CC2)C(=O)O)NC(=O)[C@@H](C)NC1=O` [compound 6307, Fol-hshta-PEG3-Gly-Phe-Lys(DOTA)] ({Pteroyl-γGlu}-[Pra][dH][dS][dH][dT][dA][Lys(N3)][AEEEA]GFK(DOTA)-OH; triazole 1-7), the recovery was determined as 81.6% in data set [5] (setting [8]) and 68.9% in data set [6] (setting [9]). The fraction unbound was 0.587 in data set [5] (human, plasma) and 0.594 in data set [6]. For the same molecule, on human recombinant NEP (Table 2), the “in vitro Assay Data (NEP assay)” value was “Cleavage of -G-F-K-”.
